Source: paper PMC11217399, “Amyloid formation and depolymerization of tumor suppressor p16^INK4a are regulated by a thiol-dependent redox mechanism” (Nature Communications, 2024)
Where a chain is given by its changes, count along the chain named. In names and notes the source's numbering stands.

B1: p16^INK4a, wild type (recombinant) (natural protein, human)
chain: GAMEPAAGSSMEPSADWLATAAARGRVEEVRALLEAGALPNAPNSYGRRPIQVMMMGSARVAELLLLHGAEPNCADPATLTRPVHDAAREGFLDTLVVLHRAGARLDVRDAWGRLPVDLAEELGHRDVARYLRAAAGGTRGSNHARIDAAEGPSDIPD
notes: p16INK4a, UniProt P42771; Self-association needs oxidation of Cys72 (diamide or H2O2): intermolecular disulfide dimer, then oligomers and amyloid fibrils; Constructs obtained from Genscript; also called wild-type p16; monomeric p16; source: E. coli BL21(DE3), purified (Ni-NTA, SEC, TEV cleavage, second Ni-NTA, desalting); not shown: His6, N-terminal, cleaved; protein A tag, N-terminal, cleaved
B2: p16^INK4a V95A (recombinant) (natural protein, human)
chain: B1 chain with V97A
notes: p16INK4a, UniProt P42771; previously reported cancer mutation; source: E. coli BL21(DE3), purified (Ni-NTA, SEC, TEV cleavage, second Ni-NTA, desalting); not shown: His6, N-terminal, cleaved; protein A tag, N-terminal, cleaved
B3: p16^INK4a D84N (recombinant) (natural protein, human)
chain: B1 chain with D86N
notes: as for B2
B4: p16^INK4a A127S (recombinant) (natural protein, human)
chain: B1 chain with A129S
notes: as for B2
B5: p16^INK4a A20S (recombinant) (natural protein, human)
chain: B1 chain with A22S
notes: as for B2
B6: p16^INK4a L37S (recombinant, stabilizing mutation) (natural protein, human)
chain: B1 chain with L39S
notes: p16INK4a, UniProt P42771; source: E. coli BL21(DE3), purified (Ni-NTA, SEC, TEV cleavage, second Ni-NTA, desalting); not shown: His6, N-terminal, cleaved; protein A tag, N-terminal, cleaved
B7: p16^INK4a G122S (recombinant) (natural protein, human)
chain: B1 chain with G124S
notes: as for B2

Experiments:
[1] = target: endogenous p16 of Ishikawa cells (human (endogenous in Ishikawa cells)) (UniProt P42771); assay: cross-linking; lysates of cancer cell lines without added oxidant, SDS lysis buffer, non-reducing SDS-PAGE and western blot for p16
[2] = target: wild-type 6xHis-tagged p16 expressed in HEK293 cells (human) (UniProt P42771); assay: cross-linking; HEK293 cells transiently expressing p16-His variants, 200 µM H2O2 in media for the times indicated, stopped with 10 µg/mL catalase and 50 mM NEM; non-reducing SDS-PAGE and western blot for p16
[3] = target: the molecule itself; assay: cross-linking; intermolecular disulfide formed by oxidant (20 µM p16, 200 µM diamide, or H2O2 with or without 25 mM bicarbonate), 4 mM HEPES pH 7.4, room temperature; free cysteines blocked with 10 mM NEM; non-reducing SDS-PAGE
[4] = target: the molecule itself; assay: Thioflavin-T fluorescence (amyloid formation); 20 µM p16 (series 5-60 µM), 10 µM ThT, oxidant (200 µM diamide, or H2O2 with or without bicarbonate) added at the start, 4 mM HEPES pH 7.4, 25 °C, quiescent

Row | Molecule | binding result [4] | further results
1 | endogenous p16 of Ishikawa cells (from UniProt P42771 1-156) (natural protein) |  | stoichiometry N [1]: 2
2 | wild-type 6xHis-tagged p16 expressed in HEK293 cells (from UniProt P42771 1-156) (natural protein) |  | stoichiometry N [2]: 2
3 | B1 |  | stoichiometry N [3]: 2
4 | B2 | binds | 
5 | B3 | binds | 
6 | B4 | binds | 
7 | B5 | binds | 
8 | B6 | binds | 
9 | B7 | binds | 
